Values belong to the molecule of their own block, whether it stands above or below them. No end group written: not given here.
What was measured:
albumin = target: T1, albumin (Oryctolagus cuniculus, UniProt P49065); test: Affinity chromatography of crude rabbit serum on a column of immobilized ligand: retention or carry-over of albumin; type: binding
T1 construct: tissue SIGMA R 9133; host or cells: crude rabbit serum
Protocol: (§1) In order to purify immunoglobulins, the column was equilibrated with a 25 mM BIS-TRIS buffer (SIGMA, Cat. B9754) pH 6.5, at a flow rate of 1 ml/min, while the eluent was monitored at 280 nm. One milliliter of crude rabbit serum (SIGMA Cat. No. R 9133) was then loaded on the column, and after elution of non retained material at the column void volume, the eluent was changed to 0.1 M acetic acid.
(§2) Material desorbed by such a treatment was collected and analyzed by electrophoretic analysis on a polyacrylamide gel.
(§3) The purification of rabbit immunoglobulins from crude serum by affinity chromatography is shown in FIG. 1 while the electrophoretic analysis of the collected fractions is shown in FIG. 2. […] Furthermore, in FIG. 2 are also shown the electrophoretic analyses corresponding to several rabbit immunoglobulins purifications obtained after equilibration of the affinity column with different buffers, namely 0.1 M ammonium acetate pH 5.7 (A), 0.1 M sodium phosphate pH 7.0 (B), or 0.1 M sodium phosphate pH 8.5 (C).
Indeed similar results were attained with other supports such as Protein-Pak (Waters, USA), Eupergit C30N (Sigma, USA) and Affi-Gel (Bio-Rad, USA).

rabbit immunoglobulins = test: Affinity chromatography of crude rabbit serum on a column of immobilized peptide, with polyacrylamide gel electrophoresis of the fractions; type: binding
Protocol: The peptide of formula (H-L-Arg-L-Thr-L-Tyr-)4-Lys2-Lys-Gly-OH (5 mg) was dissolved in 5 ml of 0.1 M sodium bicarbonate buffer pH 9.0 and then added to 1.2 g of activated resin CH-Sepharose 4B (Pharmacia, Uppsala, Sweden Cat. No. 17-0490-01), which is a chromatographic support for affinity chromatography preactivated for the direct coupling to peptides and proteins. The suspension was shaken for 24 h and the coupling level was monitored by taking aliquots of the reaction mixture at different times and subsequent RP-HPLC analysis.
Approximately 90% of initial peptide resulted covalently linked to the resin after 24 h. The derivatized resin was washed with 50 ml of 1 M TRIS pH 9.0 and then packed on a glass column (100×6.6 mm I.D.).
as §1, §2, §3

[1] = target: albumin of crude rabbit serum (rabbit, UniProt P49065 25-608); test: affinity chromatography of crude rabbit serum on the peptide immobilised on CH-Sepharose 4B; SDS-PAGE of fractions
albumin of crude rabbit serum, sequence (P49065 25-608 limits assumed): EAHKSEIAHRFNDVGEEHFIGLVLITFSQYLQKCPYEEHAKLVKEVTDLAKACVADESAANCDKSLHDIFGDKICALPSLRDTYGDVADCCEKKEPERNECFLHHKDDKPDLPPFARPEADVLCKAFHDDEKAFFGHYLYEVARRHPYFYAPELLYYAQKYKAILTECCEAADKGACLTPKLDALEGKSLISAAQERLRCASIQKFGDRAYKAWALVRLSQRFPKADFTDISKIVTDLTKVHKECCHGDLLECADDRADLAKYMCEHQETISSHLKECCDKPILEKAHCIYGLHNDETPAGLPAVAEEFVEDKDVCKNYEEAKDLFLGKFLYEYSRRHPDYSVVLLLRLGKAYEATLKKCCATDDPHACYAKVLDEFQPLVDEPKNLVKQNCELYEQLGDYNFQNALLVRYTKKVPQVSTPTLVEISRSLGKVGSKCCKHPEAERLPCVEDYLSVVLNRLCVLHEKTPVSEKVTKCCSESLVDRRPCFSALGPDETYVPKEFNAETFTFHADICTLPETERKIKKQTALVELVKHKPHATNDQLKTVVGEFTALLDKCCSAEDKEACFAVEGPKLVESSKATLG

T1 sequence (P49065 25-608): as the sequence (P49065 25-608 limits assumed) above

Molecule: protein A: protein obtained from Staphylococcus aureus, binds specifically to the constant portion of immunoglobulins; comparator affinity ligand [reference compound]
albumin in the purified fractions (albumin; same serum, immobilized protein A column of the same dimensions): always comprising traces of albumin

retention of albumin by the column (albumin; 1 ml crude rabbit serum, 25 mM BIS-TRIS pH 6.5, peptide on CH-Sepharose 4B): albumin was not retained
Molecule: (H-L-Arg-L-Thr-L-Tyr-)4-Lys2-Lys-Gly-OH (peptide H-Arg-Thr-Tyr; chain KKKG-OH; also: branched tetramer: four RTY arms on the alpha and epsilon amines of two Lys, which are attached to the alpha and epsilon amines of a central Lys followed by Gly)
purification of immunoglobulins from contaminants after equilibration with different buffers (rabbit immunoglobulins; 0.1 M ammonium acetate pH 5.7, 0.1 M sodium phosphate pH 7.0 or pH 8.5, desorbed with 0.1 M acetic acid): optimal purification of immunoglobulins from contaminants was achieved | retention of the immunoglobulin fraction from crude serum by the column (rabbit immunoglobulins; 1 ml crude rabbit serum, 25 mM BIS-TRIS pH 6.5, elution with 0.1 M acetic acid, peptide on CH-Sepharose 4B): able to retain the immunoglobulin fraction from the crude serum | purification capability of the column (rabbit immunoglobulins; immunoglobulins purified from 0.5 ml, 1 ml and 1.5 ml of serum): remarkable purification capability | column selectivity compared with immobilized protein A columns (albumin; same serum, columns of the same dimensions): superior to that of columns with immobilized protein A

binding result [1]: no binding
B1: (H-L-Arg-L-Thr-L-Tyr-)4-Lys2-Lys-Gly-OH (peptide)
peptide: H-Arg-Thr-Tyr
chain: KKKG-OH
modifications: also: branched tetramer: four RTY arms on the alpha and epsilon amines of two Lys, which are attached to the alpha and epsilon amines of a central Lys followed by Gly
notes: Synthetic branched tetramer; also called (H2N-Arg-Thr-Tyr-CO)4-Lys2Lys-Gly-OH; tetrameric tripeptide (H-L-Arg-L-Thr-L-Tyr-)4-Lys2-Lys-COOH
